# Results reported in US20050277575A1, “Therapeutic compositions and methods for treating diseases that involve angiogenesis” (priority 2004, published 2005).
# Columns and labels:
# [1] = test system: Human cerebral endothelial cells (HCEC); assay: Capillary tube formation in Matrigel, S100A4 induced angiogenesis; format: cell-based; conditions: primary HCEC grown in Matrigel
# Source text: Human cerebral endothelial cells (HCEC) were isolated using previously described protocols (Stanimirovic, D., P. Morley, et al. (1996). “Angiotensin II-induced fluid phase endocytosis in human cerebromicrovascular endothelial cells is regulated by the inositol-phosphate signaling pathway.” J Cell Physiol 169(3): 455-67.). Purity of HCEC cultures generated by these procedures was routinely assessed by the immunocytochemical staining for Factor VIII-related antigen and the lack of staining for smooth muscle β-actin, and is estimated to be >95%. The morphological, phenotypic, biochemical and functional characteristics of these HCEC cultures have been described in detail previously (Muruganandam, A., L. M Herx, et al. (1997). “Development of immortalized human cerebromicrovascular endothelial cell line as an in vitro model of the human blood-brain barrier.” Faseb J 11(13): 1187-97).
# HCEC were seeded (8×10^4 cells) on a semi-solid basement membrane matrix, Matrigel™ (Collaborative Biomedical Products, Bedford, Mass.)-coated 24-well plates and exposed to serum-free media containing various treatments. […] Confocal apertures for each recorded wavelength were adjusted to a full width half maximum of 20 μm. […] Eight to 32 individual optical sections were collected and the average was calculated. […]
# [2] = target: T1, t-PA-mediated plasminogen activation (Homo sapiens, UniProt P00750); assay: t-PA-dependent conversion of plasminogen to plasmin, effect of S100A4 (Example 11); format: biochemical
# T1 construct: purchased Calbiochem
# T1 sequence (P00750 36-562): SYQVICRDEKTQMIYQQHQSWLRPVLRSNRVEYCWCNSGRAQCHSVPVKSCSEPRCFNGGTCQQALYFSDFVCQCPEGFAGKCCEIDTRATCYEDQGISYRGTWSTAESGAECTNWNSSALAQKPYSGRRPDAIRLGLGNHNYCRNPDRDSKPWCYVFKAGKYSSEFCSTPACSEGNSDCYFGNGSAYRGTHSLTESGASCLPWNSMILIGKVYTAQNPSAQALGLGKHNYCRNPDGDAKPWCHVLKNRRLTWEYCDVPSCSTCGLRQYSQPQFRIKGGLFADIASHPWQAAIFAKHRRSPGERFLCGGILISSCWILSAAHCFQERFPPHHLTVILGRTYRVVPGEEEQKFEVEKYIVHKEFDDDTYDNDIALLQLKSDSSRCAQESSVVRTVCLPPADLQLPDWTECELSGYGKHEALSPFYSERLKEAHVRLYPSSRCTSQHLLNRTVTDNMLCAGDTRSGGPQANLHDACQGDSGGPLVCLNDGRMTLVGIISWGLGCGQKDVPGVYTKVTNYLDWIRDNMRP
# Description: Non-active plasminogen can be converted to active protease plasmin by tissue type (t-PA) or urokinase type (u-PA) plasminogen activators. Except for its well-known fibrinolytic activity, plasmin also directly and indirectly, by activation of matrix metalloproteinases (MMPs), participates in the degradation of extracellular matrix that is important for the angiogenesis and tumor invasion. The kinetics of t-PA-mediated plasminogen activation was determined by measuring amidolytic activity of the plasmin generated during plasminogen activation. The reaction was performed with the plasmin substrate Chromozyme PL, tosyl-glycyl-prolyl-lysin-4-nitranilide-acetate (Roche) in the final concentration of 125 μM in a buffer consisting of 50 mM Tris-HCl, pH 7.4, 100 mM NaCl, 5 mM of CaCl2 or 5 mM of EGTA, and 150 nM of [Glu] plasminogen (Calbiochem). The reaction was preincubated with or without 2.5 μM S100A4 at 24 C° for 1 h in 96-well plates. The reaction was initiated by addition of t-PA (Calbiochem) up to 5 nM concentration, final volume 100 μl. Kinetic of substrate hydrolysis was measured at 2 min intervals at 405 nm in Spectramax Plus 384 spectrophotometer (Molecular Devices). Analysis of kinetics curves (Vmax, time to Vmax, and initial slope of kinetic data converted to A405 versus time^2) was performed with the help of Softmax PRO program (Molecular Devices).
# Kinetics of plasminogen to plasmin conversion consists of three parts. As shown in FIG. #3 curves 1 and 2 for t-PA, during first 1500 s the reaction is second order that corresponds to conversion of plasminogen to plasmin and consequent cleavage of chromogenic substrate by plasmin. The second part of reaction is linear, for which Vmax can be calculated. It starts after total conversion of plasminogen to plasmin and corresponds to cleavage of chromogenic substrate by plasmin with constant rate. In the third part of reaction, after 2700 s, the reaction is slowing down that corresponds to depletion of chromogenic substrate and finally the reaction reaches a plateau when all substrate is cleaved. As follows from the comparison of curves 1 and 2, t-PA along converted plasminogen to plasmin equally efficiently in the presence or absence of calcium. Neither conversion of plasminogen to plasmin took place in the absence of t-PA no S110A4 induced such conversion by itself, curves 5 and 6. In the presence of S100A4 linear part of reaction starts substantially earlier, which means that total conversion of plasminogen to plasmin was accelerated. Kinetic parameters for t-PA along and for combination of t-PA with S100A4 are represented in Table 4. […] S100A4 accelerated conversion of plasminogen to plasmin in calcium independent manner, curves 3 and 4.
# [3] = Ca (5 mM CaCl2), with or without 2.5 μM S100A4
substance,measurement,setting,value
"S100A4: recombinant human S100A4 protein cloned from human placenta total RNA, Ca-binding protein of S100 family",concentration of S100A4 from which angiogenesis is induced,[1],≥ 10 nM
same,increase of initial rate of plasmin generation,[2]; 2.5 μM S100A4 versus t-PA alone,more than 3 fold
same,Slope (initial rate of plasmin generation),[2]; [3],0.250 ΔA405/t^2(min^2) * 1000
same,Time to Vmax,[2]; [3],1440 s
